Data from US20120058906A1 (published 2012).
One block for each binder: values may come before it.

Assays:
[1] = target: T1, rHuman Notch-1/Fc Chimera, CF (R&D Systems Cat#3647-TK) (human, UniProt P46531 19-526); assay: ECL (MSD multi-spot), antigen on plate, Fab 2 nM
T1 construct: Bought Fc chimera; not shown: Fc of the bought chimera

[2] = target: T2, rHuman IGF-1 sR (IGF-1 sR), CF (R&D Systems Cat#391-GR) (human, UniProt P08069 31-932); assay: MSD ECL multi-spot plate, antigen immobilized; Fab 1.6 nM; blank spot 449
T2 construct: Purchased soluble receptor; also called insulin-like growth factor-1 soluble receptor; IGF-R1

[3] = target: T3, rHuman P-Cadherin/Fc Chimera, CF (R&D Systems Cat#861-PC) (human, UniProt P22223 108-654); assay: as above
T3 construct: Purchased Fc chimera; not shown: Fc portion of the purchased chimera

[4] = target: T4, rHuman Erythropoietin R/Fc Chimera, CF (R&D Systems Cat#963-ER) (human, UniProt P19235 25-250); assay: as above
T4 construct: Purchased Fc chimera; also called EPO R/Fc; Epo R; not shown: Fc portion of the purchased chimera
T4 sequence: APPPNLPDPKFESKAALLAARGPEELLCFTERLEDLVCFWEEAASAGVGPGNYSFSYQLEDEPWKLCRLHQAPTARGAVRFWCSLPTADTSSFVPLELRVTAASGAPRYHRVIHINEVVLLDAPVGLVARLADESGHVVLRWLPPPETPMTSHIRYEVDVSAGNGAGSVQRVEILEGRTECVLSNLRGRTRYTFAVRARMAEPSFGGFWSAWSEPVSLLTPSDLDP

[5] = target: T5, Recombinant Human DLL4 (R&D Systems Cat#1506-D4/CF) (human, UniProt Q9NR61 27-524); assay: as above
T5 construct: Purchased recombinant protein; also called delta-like protein 4

[6] = target: T6, rHuman ErbB2/Fc Chimera, CF (R&D Systems Cat#1129-ER) (human, UniProt P04626 23-652); assay: as above
T6 construct: Purchased Fc chimera; also called HER2/neu; not shown: Fc portion of the purchased chimera

[7] = target: T7, rHuman EGF R/Fc Chimera, CF (R&D Systems Cat#344-ER) (human, UniProt P00533 25-645); assay: as above
T7 construct: Purchased Fc chimera; not shown: Fc portion of the purchased chimera

[8] = target: T8, rHuman HGF R/c-MET/Fc Chimera, CF (R&D Systems Cat#358-MT/CF) (human, UniProt P08581 25-932); assay: as above
T8 construct: Purchased Fc chimera; also called HGF R/Fc; not shown: Fc portion of the purchased chimera

[9] = target: T9, rHuman Notch-1/Fc Chimera, CF (R&D Systems Cat#3647-TK) (human, UniProt P46531 19-526); assay: as above
T9 construct: Purchased Fc chimera; not shown: Fc portion of the purchased chimera

[10] = target: T10, rHuman CD44/Fc Chimera, CF (R&D Systems Cat#3660-CD) (human, UniProt P16070 21-220); assay: as above
T10 construct: Purchased Fc chimera; not shown: Fc portion of the purchased chimera

[11] = target: T11, rHuman Erythropoietin R/Fc Chimera, CF (R&D Systems Cat#963-ER) (human, UniProt P19235 25-250); assay: ECL (MSD multi-spot), antigen spotted on plate; Fab 176.3 nM; blank spot 346
T11 construct: Bought reagent; also called EPO R/Fc; Epo R; Fc part of the bought chimera not given
T11 sequence: T4 sequence

[12] = target: T12, rHuman ErbB2/Fc Chimera, CF (R&D Systems Cat#1129-ER) (human, UniProt P04626 23-652); assay: as above
T12 construct: Bought reagent; also called HER2/neu; human epidermal growth factor 2 receptor; Fc part of the bought chimera not given

[13] = target: T13, rHuman EGF R/Fc Chimera, CF (R&D Systems Cat#344-ER) (human, UniProt P00533 25-645); assay: as above
T13 construct: Bought reagent; also called epidermal growth factor receptor; Fc part of the bought chimera not given

[14] = target: T14, rHuman HGF R/c-MET/Fc Chimera, CF (R&D Systems Cat#358-MT/CF) (human, UniProt P08581 25-932); assay: as above
T14 construct: Bought reagent; also called HGF R/Fc; hepatocyte growth factor receptor; Fc part of the bought chimera not given

[15] = target: T15, rHuman Notch-1/Fc Chimera, CF (R&D Systems Cat#3647-TK) (human, UniProt P46531 19-526); assay: as above
T15 construct: Bought reagent; Fc part of the bought chimera not given

[16] = target: T16, rHuman CD44/Fc Chimera, CF (R&D Systems Cat#3660-CD) (human, UniProt P16070 21-220); assay: as above
T16 construct: Bought reagent; Fc part of the bought chimera not given

[17] = target: T17, rHuman IGF-1 sR (IGF-1 sR), CF (R&D Systems Cat#391-GR) (human, UniProt P08069 31-932); assay: as above
T17 construct: Bought soluble receptor; also called insulin-like growth factor-1 soluble receptor; IGF-R1

[18] = target: T18, rHuman P-Cadherin/Fc Chimera, CF (R&D Systems Cat#861-PC) (human, UniProt P22223 108-654); assay: as above
T18 construct: Bought reagent; also called CDH3; Fc part of the bought chimera not given
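Note: blank spot per well as comparator with Hit at signal to blank ratio of 4 or more.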

ECL signal [1]: 202 ECL signal
B1: Fab VH1-46_IGHD6-6*01_IGHJ1*01_S102A_S103P_S104F & L6_IGKJ1*01_S31K (Fab, V domains shown)
VH: QVQLVQSGAEVKKPGASVKVSCKASGYTFTSYYMHWVRQAPGQGLEWMGIINPSGGSTSYAQKFQGRVTMTRDTSTSTVYMELSSLRSEDTAVYYCAREEYAPFSAEYFQHWGQGTLVTVSS
VL: EIVLTQSPATLSLSPGERATLSCRASQSVSKYLAWYQQKPGQAPRLLIYDASNRATGIPARFSGSGSGTDFTLTISSLEPEDFAVYYCQQRSNWPPWTFGQGTKVEIKR
notes: Fab

ECL signal [2]: 1330 ECL signal | ECL signal [3]: 666 ECL signal | ECL signal [4]: 920 ECL signal | ECL signal [5]: 1540 ECL signal | ECL signal [6]: 1440 ECL signal | ECL signal [7]: 1200 ECL signal | ECL signal [8]: 1210 ECL signal | ECL signal [9]: 1050 ECL signal | ECL signal [10]: 997 ECL signal
B2: Fab VH5-51_IGHD5-18*01>3_IGHJ4*01_G100R & V3-4_IGLJ1*01 (Fab, V domains shown)
VH: EVQLVQSGAEVKKPGESLKISCKGSGYSFTSYWIGWVRQMPGKGLEWMGIIYPGDSDTRYSPSFQGQVTISADKSISTAYLQWSSLKASDTAMYYCARRRYSYGYDYFDYWGQGTLVTVSS
VL: QTVVTQEPSFSVSPGGTVTLTCGLSSGSVSTSYYPSWYQQTPGQAPRTLIYSTNTRSSGVPDRFSGSILGNKAALTITGAQADDESDYYCVLYMGSGISYVFGTGTKVTVL
notes: It was expressed as a Fab: CH1 with tags from Plasmid A and lambda CL from Plasmid E; also called Fab No. 23

ECL signal [11]: 3520 | ECL signal [12]: 448 | ECL signal [13]: 428 | ECL signal [14]: 418 | ECL signal [15]: 664 | ECL signal [16]: 376 | ECL signal [17]: 393 | ECL signal [18]: 532
B3: Fab VH1-46_IGHD3-10*01_IGHJ4*01 & B3_IGKJ1*01 (Fab, V domains shown)
VH: QVQLVQSGAEVKKPGASVKVSCKASGYTFTSYYMHWVRQAPGQGLEWMGIINPSGGSTSYAQKFQGRVTMTRDTSTSTVYMELSSLRSEDTAVYYCAREYYYGSGSYYNDYFDYWGQGTLVTVSS
VL: not shown
notes: also called IGHV1-46*01
